Test results published in patent US20070003547A1 (published 2007).

B1: (Fab)'2 fragment of mouse BCF2 IgG (other)
chain 1: DIVLTQSPVSLAVSVGQRATISCKASQSVDFDGESYMNWYQQKPGQPPKLLIYVVSNLESGIPARFSGSGSGTDFTLNIHPVEEEDAATYYCQQSNEDPLTFGAGTNLELKR
chain 2: EVQLQQSGPELVKPGASMKISCKVSGYSFTDHTMNWVKQSHGKNLELIGLINPFNGDATYKQKFTGKATLTVDRSSSTAFMELLSLTSEDSAVYYCARYGNYAMDYWGQGTSVTVSS
B2: Fab fragment comprised of mouse 9.3 variable domains and human constant domains (Fab, V domains shown)
VH: EVKLQQSGPGLVTPSQSLSITCTVSGFSLSDYGVHWVRQSPGQGLEWLGVIWAGGGTNYNSALMSRKSISKDNSKSQVFLKMNSLQADDTAVYYCARDKGYSYYYSMDYWGQGTSVTVSS
VL: DIELTQSPASLAVSLGQRATISCRASESVEYYVTSLMQWYQQKPGQPPKLLIFAASNVESGVPARFSGSGSGTNFSLNIHPVDEDDVAMYFCQQSRKVPYTFGGGTKLEIKR
B3: humanized D1.3 Fab (Fab, V domains shown)
VH: QVQLQESGPGLVKPSETLSLTCTVSGGSVSGYGVNWIRQPPGKGLEWIGMIWGDGNTDYNSSLKSRVTISVDTSKNQFSLKLSSVTAADTAVYYCARERDYRLDYWGQGTLVTVSS
VL: AIRMTQSPFSLSASVGDRVTITCRASGNIHNYLAWYQQKPAKAPKLFIYYTTTLADGVPSRFSGSGSGTDYTLTISSLQPEDFATYYCQHFWSTPRTFGGGTKVEIKR
B4: humanized BCF2 Fab fragment (Fab, V domains shown)
VH: EVQLVQSGAEVKKPGATVKISCKVSGYTFTDHTMNWVQQAPGKGLEWMGLINPFNGDATYKQKFQGRVTITADTSTDTAYMELSSLRSEDTAVYYCARYGNYAMDYWGQGTTVTVSS
VL: DIVMTQTPLSLSVTPGQPASISCKASQSVDFDGESYMNWYLQKPGQPPQLLIYVVSNLESGVPDRFSGSGSGTDFTLKISRVEAEDVGVYYCQQSNEDPLTFGGGYKVEIKR

Tests used:
scorpion toxin = scorpion toxin (Centruroides noxius, UniProt P01495 17-82); assay: BIAcore SPR, toxin immobilized, antibody in solution, from kinetic rate constants
CD28Ig = CD28Ig (human, UniProt P10747 19-152); assay: ELISA, CD28Ig coated plates, anti-human k conjugate
chicken lysozyme = molecular target: T1, chicken lysozyme (chicken, UniProt P00698 19-147); assay: fluorescence quench titration (FIG. 7 legend)
T1 construct: The assay paragraph says only 'lysozyme'; also called chicken lysozyme antigen

| Binder | Kd (scorpion toxin) [nM] | also measured |
| --- | --- | --- |
| B1 | 10 |  |
| B2 |  | EC50 (CD28Ig): 20 nM |
| B3 |  | Ka (chicken lysozyme): > 1e+08 M⁻¹ |
| B4 | 140 |  |
